# The DeepSol protein solubility set
# Test: soluble on expression in E. coli; label from the status in PepcDB or PDB records
row,Sequence,soluble on expression in E. coli
1,MSGGKLPEGWATSTINEMCNLNPKLKLDDDLDVGFMPMAGVPTTYLGKCNFETKKWSEVKKGFTQFQNDDVIFAKITPCFENGKAVVIKEFPNGYGAGSTEYYVLRSINGLINPHWLFALVKTKDFLTNGALNMSGSVGHKRVTKEFLENYGVPVPPLAEQKVIAEKLDTLLAQVDSTKARLEQIPQILKRFRQSVIVAAVNGQLTKELHKKNKFKLTELNISIPSLWKISEIGQFADVKGGKRLPKGESLIAENTGFPYIRAGQLKNGTVLPEGQLYLEEYIQKSISRYTVSSGDLYITIVGACIGDAGIIPDVYNNANLTENAAKICNLNENIFNRFLSLWLRSSYLQDIINSEIKSGAQGKLALARIKSLPLILPPLQEQHEIVRRVEQLFAYADTIEKQVNNALTRVNSLTQSILAKAFRGELTAQWRAENPELISGENSAAALLEKIKAERAASGGKKTSRKKA,not soluble
2,MPRILFTVPPFPVFIAAGEGVFKKGETHVKRVFSVFDLIYVKQGTLYITENETSFSVEGGEYILLSPGLEHYGTKGSDEATSYYWLHFDEHRYEFTAKGGSNWSELQQEKGSFEELARYGLALPRKGKVQRPQFMAQQFEKLIDYSAENSDLPLRKQILFEELMLHLQKEAFQIPSAKERVAWEAARYLQEHYKEKTTIKDLSLALHYHQDYVSRCMQQVLGVTPAQYTNRVRMTEAKRLLSSTNDKMGVIAETVGMEDPTYFSKLFKQIEGISPIEYRKIVSRKVQ,not soluble
3,MTEPLILQPAKPADACVIWLHGLGADRYDFMPVAEALQESLLTTRFVLPQAPTRPVTINGGYEMPSWYDIKAMSPARSISLEELEVSAKMVTDLIEAQKRTGIDASRIFLAGFSQGGAVVFHTAFINWQGPLGGVIALSTYAPTFGDELELSASQQRIPALCLHGQYDDVVQNAMGRSAFEHLKSRGVTVTWQEYPMGHEVLPQEIHDIGAWLAARLG,soluble
4,MSLDKIFVEEAVSELHTLQDMIRWTVSRFNAANLFYGQGTDNAWDEAVQLILPTLYLPIDVPPHVLSSRLTSSERLRVVERVIKRINDRTPVAYLTNKAWFCGLEFFVDSRVLVPRSPIGELIQNRFEPWLTEEPTRIMDLCTGSGCIAIACANAFPEAEVDAIDISVDALNVAEQNIQDHGLEQQVFPIRSDLFRDLPQEQYDLIVTNPPYVDQEDMDSLPSEFRHEPELGLAAGSDGLKLARRILANAPLYLKENGILVCEVGNSMVHMMEQYPHIPFTWLEFENGGHGVFLLTREQLIDCAADFALYKDEGHHHHHH,soluble
5,GMTQHLTIAQTYLAAWNEEDNERRRHLVGQAWAENTRYVDPLMQGEGQQGIAAMIEAARQKFPGYRFVLAGTPDGHGNFTRFSWRLISPDGDDVAGGTDVVSLNTEGRIDNVVGFLDGAVS,soluble
6,MPRRALGWTAEVLKRLHGINYPITKDTLREKLAGMSIRGVPVERVIDEIEVDKFDTPRDVLHYIAEAVHKLEERGEIPTETRKGIRWAAEVLKRIHGEHFPMDKQKLKEKLAGLYWRGVPIEKVIDAMEVEQVESPADLLHQLSIAIKKLEEQGEVA,not soluble
7,MSLKNIVFCGLSSRAFSMFIKPLMERFSTHYEITGLLDADPKRFAVCKKKFPELAHVPEFSEDAFDEMMRVSKPDIVIVAGRDDTHVAYIVKSLQWNTDVITEKPMVTTVQDANRVLEAEAKSEGKVTVAFNYRYSPFHRKIKEMILDGKIGRVTSVDLNWYIDTYHGASYFKRWNRSRQFSGGLSVHKSTHHFDLVNWWLGQNPEEVFAYGALNYYGPDSEWNPLPEEDGRFCGTCRVKEKCHYYSRWHPRSSKASIKDDHLEAGDQSSLYTAYRPDACIFDEEIDIEDTYVAAVKYDGGALLSYSIIFSAPYEGYRLTINGTKGRIESNEFHEPSRIPFAFPEQTIEYYPLFESKQTIQVVKNEGGHGGGDPLLLEDLFLGKDPLRRYDILAGAEAGAYSIAVGEGMWRSVAEKKPIGMKELFQMQNEGHHHHHH,soluble
8,VMGKRYVATPQQSQWEMVVNTPLECQLVHPIPSFGDAVFSSRANKKINLDFELKMRRPMGETRNVSLISMPPPWRPGEHADRITNLKFFKQFDGYVGGQTAWGILSELEKGRYPTFSYQDWQSRDQRIEVALSSVLFQNKYNAFSDCISNLLKYSFEDIAFTILHYERQGDQLTKASKKRLSQIADYIRHNQDIDLVLVATYTDSTDGKSASQSLSERRAESLRDYFQSLGLPEDRIQVQGYGKRRPIADNGSPIGKDKNRRVVISLGRTQVHHHHHH,soluble
9,MAHHHHHHMNGEVSVERKFSPSQPGYGSEGCRQSMGTTTNNGARRFSATELGRTVGMPYSFDTMRYLKDVMRRREDIHTMRVMPKTHLLAQLVLLEQSGREMLIHQERFCRQQIAHKRDDERSKREEQRLQQKNRDRLEEMKRKQVEELAALKEGVTSFQRQIDAEVKEKLRIVCMLQPRMNVAAAVLAEVKNEASPFLLLPELMEEEKRVAKALKADSRYSKSSADSGAVPHWMRTCVAGSFNVAAILQDAPYRATVDDAVKVTNAFLRKVVVVRDVNDRSVVGWVHVRAGSDPATLATELVRLPAPEELPDQGNIGVVWPKEDFLELSRRAKANNNVETQQLLQSVLGISSASLHCVGLTTHEFSKKEVDTIGSLASV,not soluble
10,MGQGQSVILSFEDGARTVELARESVEAFVQNGQREQPGSMRDAFYNRTSAFVRLESTRGRGRLRGCAGAHGSIHELGNHDQQLGHAIVEAAIEAASEASCGSEVEDAELPNIRVSVCTVSNLVLTDDPIEDIELGVHGVAIDGDGQHGWMYPTLPVENDWSVFEYLDRTCRKANLPDGAWQDEDVMVTLFEGQVFRETGDEDDPVEELTALEHHHHHH,not soluble
11,SLNPRDVVIVDFGRTPMGRSKGGMHRNTRAEDMSAHLISKVLERNSKVDPGEVEDVIWGCVNQTLEQGWNIARMASLMTQIPHTSAAQTVSRLCGSSMSALHTAAQAIMTGNGDVFVVGGVEHMGHVSMMHGVDPNPHMSLYAAKASGMMGLTAEMLGKMHGISREQQDAFAVRSHQLAHKATVEGKFKDEIIPMQGYDENGFLKIFDYDETIRPDTTLESLAALKPAFNPKGGTVTAGTSSQITDGASCMIVMSAQRAKDLGLEPLAVIRSMAVAGVDPAIMGYGPVPATQKALKRAGLNMADIDFIELNEAFAAQALPVLKDLKVLDKMNEKVNLHGGAIALGHPFGCSGARISGTLLNVMKQNGGTFGLSTMCIGLGQGIATVFERV,soluble
12,MKKTLALAATAAVLMLSACSSGFGGEKEEEITQKTAKSSEKAIVPKYNISDSYYKMVLPFKAGKARGLTTEQLNTRLDIDEFETGLMRLAQDSFSTDDYLFQEGQYLDEDTVLSWLARKKTGSDLKKAEKEDKNFKNEGLNPALPSSGSTEEKNESSPIYLASMLEHDYLVRKDKNSIQLGGVMIGLALNSVYYYREKTGDPQKEVEIKDSTLRQQGEKIAQEVINRLRKKDNLKNVPITVALYKQASKTSIVPGNFIAKTEVKAGSTDISNWDDINEKYVFYPADTTTAEKYPDDTEVFKRFKNSIEEYFPNYTGVVGTALYENDEMKKMKIDIPMQFYGKSEVVAFTQFLTGEVMDYYSKSSVDVEVNITSSDGQEAVIIRNAGDKEPTVHIYD,not soluble
13,MGSDKIHHHHHHLEKAALILEGGALRSFFTSAVLDYFLEKQMDFEYIHGVSAGTMAAMNYISKQKRRSADVNLHFLHDKRYIGFNNLIRNGGIFNLDFLFSPECYDYSPFDYKAYNESKQIFEITATNVLTGKADIFRKTDTDGQEEAVKASASMPLVSDIRVVNHQPYLDGGIADSIPFRRAQELGYEKIVVVLTRDISYRKPENSRAMNRLVKFRYRDFPRFVQAFADRPQQYNRSLAEIERLEREGKIFVIRPQEPVSVSRVERDDKKLMALYEKGTEVIQNQFADLQKYLAQ,not soluble
14,MSEAAHSGAAPADLVELGRIASAYGVKGWVKVQPHSAQAEVLRTVSHWWLTRPAPQAARGVVASVPRAYQVLQARVHGGAVVAQLAGIDDRDQAEALRGCLVQAARSAFPAPADDEYYWVDLIGCALYSDADGESRLLGVVDEVFDNGAHAVLKVLRQQLQPGQPGPVPLVDPKGRPLEELVPFVRAHIRHVDLAARRIDSDWPLDYLEHHHHHH,soluble
15,MHTQRAGLSAIVATYRYQLATGVVYRDISSTIATEKIPFVENAVLKERAFIETIKQHQEPQRRIPRPVDSYVMLHSNARITTSRVIPQHKYKVTAKNPCRSIKRNAFQTAPSQTQLFISVNNRWLGLEHHHHHH,not soluble
16,DLFVVEKPPSLPVHTCGQYAIHTVLGQLRVNEGRTGLRVLHRLDRATSGVLLFAKNYETDLEFKTTLKQGEWSKEYICKVDGVFPDEEQVCEQPIGPLVISMGIQCVRPDGKDAKSRFRKLWSDGTQSVVQVHIETGRTHQIRVHSQF,not soluble
